According to patent publication US20180030119A1:

Key:
Experiment in all cases: cell-based or functional assay
[1] = substrate: F protein of palivizumab-resistant clinical RSV isolate #20, on virus (RSV clinical isolate #20), P11209
[2] = molecular target: 42 RSV/A isolates (F protein on virus)
[3] = molecular target: 26 RSV/B isolates (F protein on virus)

B1: AR201 (antibody, V domains shown)
VH: LVQLRESGPGLVKPSQTLSLTCSVSGASINLYDYFWGWIRQAPGRGPEWIGYISGSTYYNPSLKRRATISVDTSKSQFFLELTSVTAADTAVYYCARDVGWGPQYYYGLDVWGQGTTVTVSS
VL: DLVLTQSPGTLSLSPGERATLSCRASHSVQSTSLAWYQQKRGQAPRLLIYGGSSRVTGIPDRFSGSGSGTDFTLTISRLEPEDFAVYYCQQSDRSPPITFGQGTRLEMK
[1]
  IC50 of neutralisation, infectivity assay on Hep2 cells: 1710 nM
[2]
  Log10 PFU/0.2 mL after 20 ug/ml antibody, plaque reduction assay on HEp-2 cells, mean (Log10 PFU/0.2 mL): -0.42
  Log10 PFU/0.2 mL after 20 ug/ml antibody, plaque reduction assay on HEp-2 cells, median (Log10 PFU/0.2 mL): -0.6
[3]
  Log10 PFU/0.2 mL after 20 ug/ml antibody, plaque reduction assay on HEp-2 cells, mean (Log10 PFU/0.2 mL): -0.52
  Log10 PFU/0.2 mL after 20 ug/ml antibody, plaque reduction assay on HEp-2 cells, median (Log10 PFU/0.2 mL): -0.6
